Experimental data reported in patent publication US20260152573A1.
pIC50: −log10 of the molar value.

Legend:
[1] = biological target: FcRn-L322A/L323A expressed in HEK293 cells (human) (UniProt P55899); assay: FcRn occupancy, FACS, HEK293-FcRn-mut cells, without albumin
[2] = biological target: neonatal Fc receptor (FcRn), endogenous in U937 cells (human) (UniProt P55899); assay: FcRn occupancy, FACS, U937 cells, with albumin
[3] = biological target: FcRn (cells of the occupancy assay not stated) (UniProt P55899); assay: FcRn occupancy assay, cells not given
[4] = biological target: neonatal Fc receptor (FcRn), endogenous in U937 cells (human) (UniProt P55899); assay: cell-based FcRn occupancy assay on U937 cells, flow cytometry; free FcRn stained with anti-FcRn-Fab AF647
[5] = biological target: FcRn-L322A/L323A expressed in HEK293 cells (human) (UniProt P55899); assay: FcRn occupancy, FACS, HEK293-FcRn-mut cells, with albumin

- pIC50 [1]: 8.17
- % max occupancy [2]: 56.8%
- pIC50 [2]: 8.32
- pIC50 [3]: 8.22
- IC50 (read off the curve) [4]: 0.3 nM
- % max occupancy [5]: 57.7%
- pIC50 [5]: 7.79
Substance: efgartigimod
